Test results from publication PMC5454376 (2017).
Like-named read-outs stand apart in the source and are kept apart here. Where no end group is shown, it is not given here.

T1: Gαi3 L249V (Homo sapiens)
T1 chain: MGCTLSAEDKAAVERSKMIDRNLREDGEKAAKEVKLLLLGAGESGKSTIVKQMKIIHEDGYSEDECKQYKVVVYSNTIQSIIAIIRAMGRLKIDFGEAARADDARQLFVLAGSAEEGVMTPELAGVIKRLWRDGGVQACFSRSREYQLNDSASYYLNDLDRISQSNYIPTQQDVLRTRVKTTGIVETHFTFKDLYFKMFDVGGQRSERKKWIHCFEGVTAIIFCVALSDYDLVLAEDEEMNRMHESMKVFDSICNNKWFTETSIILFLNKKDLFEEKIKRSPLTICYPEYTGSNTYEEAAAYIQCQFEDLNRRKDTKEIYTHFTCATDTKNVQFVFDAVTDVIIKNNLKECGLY

T2: Human His-Gαi3 WT (human, UniProt P08754 1-354)
T2 chain: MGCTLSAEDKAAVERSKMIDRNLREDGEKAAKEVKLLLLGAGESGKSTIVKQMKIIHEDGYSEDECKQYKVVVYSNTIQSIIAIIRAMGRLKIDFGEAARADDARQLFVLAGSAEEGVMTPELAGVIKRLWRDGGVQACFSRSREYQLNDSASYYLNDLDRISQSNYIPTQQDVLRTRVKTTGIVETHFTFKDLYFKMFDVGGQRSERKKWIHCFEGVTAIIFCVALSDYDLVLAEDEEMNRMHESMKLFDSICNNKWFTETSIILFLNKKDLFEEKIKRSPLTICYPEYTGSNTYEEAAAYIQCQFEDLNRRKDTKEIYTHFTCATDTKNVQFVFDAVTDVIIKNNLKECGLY

T3: Human His-Gαi3 ΔC9 (lacking the last nine residues) (human, UniProt P08754 1-345)
T3 chain: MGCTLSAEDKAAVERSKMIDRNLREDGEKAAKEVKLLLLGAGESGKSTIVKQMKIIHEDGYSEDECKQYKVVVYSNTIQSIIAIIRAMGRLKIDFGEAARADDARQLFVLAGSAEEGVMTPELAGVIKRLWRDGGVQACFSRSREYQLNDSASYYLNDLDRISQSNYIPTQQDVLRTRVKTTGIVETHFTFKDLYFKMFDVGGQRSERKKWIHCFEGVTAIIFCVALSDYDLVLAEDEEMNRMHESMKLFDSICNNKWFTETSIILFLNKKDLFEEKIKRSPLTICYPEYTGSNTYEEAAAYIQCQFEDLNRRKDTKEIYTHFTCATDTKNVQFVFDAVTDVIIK

T4: Full-length human Gαi3, untagged (NMR sample) (human, UniProt P08754 1-354)
T4 chain: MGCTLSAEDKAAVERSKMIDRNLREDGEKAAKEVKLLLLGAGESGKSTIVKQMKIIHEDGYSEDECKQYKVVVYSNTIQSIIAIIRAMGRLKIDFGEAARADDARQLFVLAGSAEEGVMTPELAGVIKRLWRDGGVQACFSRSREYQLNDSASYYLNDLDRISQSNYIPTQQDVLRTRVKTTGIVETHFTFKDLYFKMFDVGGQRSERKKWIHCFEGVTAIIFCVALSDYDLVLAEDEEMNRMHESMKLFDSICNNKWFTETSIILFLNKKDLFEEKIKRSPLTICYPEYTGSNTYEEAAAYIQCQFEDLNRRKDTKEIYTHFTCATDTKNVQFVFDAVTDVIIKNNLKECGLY


Legend:
[1] = biological target: Human His-Gαi3 I184 mutant (human, UniProt P08754 1-354); experiment: FP
[2] = biological target: Human His-Gαi3 L39 mutant (human, UniProt P08754 1-354); experiment: FP
[3] = biological target: Human His-Gαi3 V218 mutant (human, UniProt P08754 1-354); experiment: FP
[4] = biological target: Human His-Gαi3 L36 mutant (human, UniProt P08754 1-354); experiment: FP
[5] = biological target: Human His-Gαi3 K257 mutant (human, UniProt P08754 1-354); experiment: FP
[6] = biological target: Human His-Gαi3 W258 mutant (human, UniProt P08754 1-354); experiment: FP
[7] = biological target: Human His-Gαi3 L37 mutant (human, UniProt P08754 1-354); experiment: FP
[8] = biological target: Human His-Gαi3 G42 mutant (human, UniProt P08754 1-354); experiment: FP
[9] = biological target: Human His-Gαi3 F259 mutant (human, UniProt P08754 1-354); experiment: FP
[10] = biological target: Human His-Gαi3 S252A (human, UniProt P08754 1-354, S252 mutated to A); experiment: FP
[11] = biological target: Human His-Gαi3 L249H (human, UniProt P08754 1-354, L249H); experiment: FP
[12] = biological target: Human His-Gαi3 W211A (human, UniProt P08754 1-354, W211A); experiment: FP
[13] = biological target: T1, Gαi3 L249V; experiment: FP
[14] = biological target: T2, Human His-Gαi3 WT; experiment: FP
[15] = biological target: Human His-Gαi3 S252D (human, UniProt P08754 1-354, S252D); experiment: FP
[16] = biological target: Human His-Gαi3 R313 mutant (human, UniProt P08754 1-354); experiment: FP
[17] = biological target: Human His-Gαi3 N256A (human, UniProt P08754 1-354, N256 mutated to A); experiment: FP
[18] = biological target: T2, Human His-Gαi3 WT; experiment: FP
[19] = biological target: T2, Human His-Gαi3 WT; experiment: FP
[20] = biological target: T3, Human His-Gαi3 ΔC9 (lacking the last …); experiment: FP
[21] = biological target: T5, Human His-Gαi3 K317 mutant (human, UniProt P08754 1-354); experiment: FP; K317A
[22] = biological target: T5, Human His-Gαi3 K317 mutant; experiment: FP; K317W
[23] = biological target: T4, Full-length human Gαi3, untagged (NMR …); experiment: FP; His-tag cleaved Gαi3

Kd [1]	Kd [2]	Kd [3]	Kd [4]	Kd [5]	Kd [6]	Kd [7]	Kd [8]	Kd [9]	Kd [11]	Kd [13]	Kd [14]	Kd [15]	Binder	further results
83 nM	176 nM	104 nM	119 nM	86 nM	63 nM	80 nM	98 nM	187 nM	266 nM	84 nM	54 nM	336 nM	DEAEEFFELISKAQSNRADDQRGLLRKEDLVLPEFLR (not fully specified (N-terminus); also: 5,6-carboxyfluorescein coupled to resin-bound peptide after elongation, site not given here) [Fluorescein-labelled RGS12 GoLoco peptide (residues 1,185–1,221)]	Kd [10]: 35 nM; Kd [12]: 61 nM
1910 nM	3080 nM	362 nM	706 nM	870 nM	1820 nM	478 nM	377 nM	1260 nM	4410 nM	1370 nM	581 nM	3090 nM	KTGSPGSEVVTLQQFLEESNKLTSVQIKSSS (not fully specified (N-terminus); also: 5,6-carboxyfluorescein coupled to resin-bound peptide after elongation, site not given here) [Fluorescein-labelled GIV peptide (residues 1,671–1,701)]	Kd [16]: 800 nM; Kd [17]: 1040 nM; Kd [18]: 580 nM; Kd [19]: 580 nM; Kd [20]: 700 nM; Kd [21]: 590 nM; Kd [22]: 510 nM; Kd [23]: 680 nM
